# In PMC9504172:
# How the values were obtained:
# Assay in all cases: pull-down; GST-Rab11 proteins immobilized on glutathione-Sepharose beads; lysates of cells expressing GFP-SPIN90 in buffer B (25 mM HEPES, 100 mM NaCl, 5 mM MgCl2, 1% NP-40, 10% glycerol); 2 h at 4 °C; immunoblot with anti-GFP
# [1] = molecular target: GST-Rab11 Q70L (human) (UniProt P62491)
# [2] = molecular target: GST-Rab11 S25N (human) (UniProt P62491)
# [3] = molecular target: GST-Rab11 WT (human) (UniProt P62491)
substance,measurement,setting,value
GFP-SPIN90 C-term (C) (domain or fragment),relative band intensity (normalized to GST-Rab11 WT with SPIN90 FL),[1],1.43
same,relative band intensity (normalized to GST-Rab11 WT with SPIN90 FL),[2],2.89
same,relative band intensity (normalized to GST-Rab11 WT with SPIN90 FL),[3],1.8
